This note sets out measurements from the RNAGym collection of RNA variant scans (doi:10.1093/nar/gkz1192).

Sequences and labels used below:
B1: CPEB3 Ribozyme (parent)
chain: UAACAGGGGGCCACAGCAGAAGCGUUCACGUCGCAGCCCCUGUCAGAUUCUGGUGAAUCUGCGAAUUCUGCUGUAUAUCUC

In the data set the parent is B1. Description: self-cleavage, relative activity (ratio to wild type); higher = more cleavage; in vitro, sequencing. In short, it runs like this: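 Relative activity compares each variant's cleaved/total read fraction with that of the unmutated ribozyme. To get these fractions, barcoded CPEB3 ribozyme libraries from rounds of error-prone PCR were transcribed with T7 RNA polymerase for 5 hours at 37°C and then given 15 min of DNase I treatment before EDTA was added. The RNAs were reverse transcribed with template switching and sequenced on Illumina, and DNA sequencing linked barcodes to variants. A minimum of 5 reads applied, and three batches were averaged.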
Consider U54A U67G, for which the self-cleavage stood at 0.36.

As for U54A U67A, the self-cleavage worked out at 0.67.

For the variant U54A U67C, the self-cleavage came to 0.46.

For the variant G55C A77G, the self-cleavage was 1.04.

With G55A U72C, the self-cleavage turned out to be 0.83.

Regarding G55A U72A, the self-cleavage turned out to be 0.53.

G55A U58C: the self-cleavage stood at 0.27.

Consider G55A A56G, for which the self-cleavage is 0.8.

Consider G55A A56U, for which the self-cleavage stood at 0.84.

As for U54A C81U, the self-cleavage turned out to be 1.2.

As for U54C C81U, the self-cleavage was 1.17.

Take U54C C81G: the self-cleavage turned out to be 1.3.

A56C A75G: the self-cleavage stood at 0.29.

On to G53C A65G, for which the self-cleavage was found to be 0.67.

With G53U U66G, the self-cleavage was determined as 0.66.

With G53C C71U, the self-cleavage turned out to be 0.57.

As for U54C G70A, the self-cleavage is 0.43.

As for U54A U76C, the self-cleavage was 1.04.

Consider U54A U76A, for which the self-cleavage was determined as 1.13.

Regarding U54G C79A, the self-cleavage turned out to be 1.18.

As for U54G U60G, the self-cleavage was 0.42.

As for U54G U60A, the self-cleavage was determined as 0.37.

Consider U54G U60C, for which the self-cleavage was determined as 0.44.

Consider A56C A64G, for which the self-cleavage was 0.49.

As to A56C A64U, the self-cleavage is 0.18.

Take G55C U78A: the self-cleavage came out at 0.97.

For G55C U78C, the self-cleavage came to 0.94.

G53U C81G: the self-cleavage came to 1.24.

Take G55A U80C: the self-cleavage was 1.09.

On to G55A U80A, for which the self-cleavage stood at 1.15.

As for G53A G55A, the self-cleavage worked out at 0.87.

For G53A G55C, the self-cleavage was determined as 1.01.

For U54C U60A, the self-cleavage is 0.42.

For the variant U54C U60C, the self-cleavage is 0.39.

With U54C U60G, the self-cleavage stood at 0.5.

As to G55C U72A, the self-cleavage turned out to be 0.4.

As to G53U U58C, the self-cleavage is 1.08.

G53A U72G: the self-cleavage turned out to be 1.22.

G53A U72C: the self-cleavage came out at 1.23.

For G53A U72A, the self-cleavage was found to be 0.79.

As for U54C U78A, the self-cleavage is 1.03.

Take U54C U78C: the self-cleavage turned out to be 0.97.

Turning to U54C U78G, the self-cleavage was 1.07.

Turning to U54G A65G, the self-cleavage worked out at 0.3.

Turning to U54G A75U, the self-cleavage came to 0.96.

U54A G70C: the self-cleavage stood at 0.39.

Consider U54A U69G, for which the self-cleavage is 0.92.

Regarding U54A U69A, the self-cleavage amounted to 0.86.

As to U54A U69C, the self-cleavage amounted to 0.63.

As for G55C C62U, the self-cleavage is 0.22.

Consider U54C C62G, for which the self-cleavage turned out to be 0.13.

Consider U54C C62A, for which the self-cleavage was determined as 0.13.

Consider U54C C62U, for which the self-cleavage turned out to be 0.18.

Regarding G55A A75G, the self-cleavage was 0.4.

U54A U66G: the self-cleavage amounted to 0.65.

Regarding U54A U66C, the self-cleavage turned out to be 0.49.

In the case of G55C G70C, the self-cleavage amounted to 0.17.

Take A56C U72A: the self-cleavage was 0.18.

In the case of A56C U72C, the self-cleavage worked out at 0.52.

As for G53C U80A, the self-cleavage came to 1.22.

Consider G53C U80C, for which the self-cleavage stood at 0.96.

Consider G55A U78A, for which the self-cleavage was 1.

With G55A U78C, the self-cleavage was 0.75.

Take G53A U76C: the self-cleavage was 1.01.

Consider U54A G73A, for which the self-cleavage amounted to 1.25.

U54A G73U: the self-cleavage was found to be 1.27.

As to G55A U69G, the self-cleavage came to 0.34.

In the case of G55A U69A, the self-cleavage turned out to be 0.39.

On to G55A U69C, for which the self-cleavage came out at 0.28.

On to G55C U69C, for which the self-cleavage came out at 0.44.

Consider G53A U66C, for which the self-cleavage was found to be 0.53.

With G55U C81U, the self-cleavage turned out to be 0.6.

Take G53C U60C: the self-cleavage was 0.55.

In the case of G53C U60A, the self-cleavage worked out at 0.56.

In the case of G53C A56G, the self-cleavage came to 0.53.

Take G53A U60C: the self-cleavage is 0.69.

For G53A U60A, the self-cleavage is 0.68.

Regarding U54A U78C, the self-cleavage was 1.05.

As to U54A U78A, the self-cleavage was 1.19.

Consider U54C C71A, for which the self-cleavage amounted to 0.39.

For the variant U54C C71U, the self-cleavage was found to be 0.72.

G53C U58C: the self-cleavage was 0.68.

Consider U54A G61A, for which the self-cleavage amounted to 0.73.

For U54A G61U, the self-cleavage amounted to 0.76.

As to U54C U58A, the self-cleavage amounted to 0.33.

As for U54C U58C, the self-cleavage was found to be 0.48.

Regarding U54A U74C, the self-cleavage was found to be 1.28.

On to U54A U74A, for which the self-cleavage worked out at 1.22.

On to U54A U74G, for which the self-cleavage was 1.3.

As to G52U U74C, the self-cleavage worked out at 1.28.

As to G52U U74A, the self-cleavage came out at 1.26.

On to G53A G70A, for which the self-cleavage was 0.62.

In the case of G53A G70U, the self-cleavage worked out at 0.44.

With G53A U69C, the self-cleavage turned out to be 0.69.

G53A U69A: the self-cleavage is 0.67.

Turning to U54C C59U, the self-cleavage was determined as 0.68.

U54C C59A: the self-cleavage was determined as 0.3.

For G53C C62G, the self-cleavage was 0.29.

Take U54G A77G: the self-cleavage is 0.74.

With U54C A75U, the self-cleavage was 1.2.

Turning to U54C A75G, the self-cleavage worked out at 0.88.

On to U54G C68U, for which the self-cleavage was 0.68.

Turning to U54A A57C, the self-cleavage was 0.77.

As to U54A A57U, the self-cleavage was 1.04.

As for U54A A57G, the self-cleavage was 0.91.

As to A56G A57C, the self-cleavage stood at 0.19.

G53C U69C: the self-cleavage was found to be 0.64.

G53C U69A: the self-cleavage was 0.49.

In the case of G53A U67C, the self-cleavage worked out at 0.41.

As for G53A U67A, the self-cleavage worked out at 0.55.

U54C A56G: the self-cleavage came out at 0.64.

As to U54C A56U, the self-cleavage amounted to 0.52.

On to U54C A56C, for which the self-cleavage is 0.38.

In the case of U54A U58A, the self-cleavage was 0.45.

Consider U54A U58C, for which the self-cleavage turned out to be 0.69.

Consider U54A U58G, for which the self-cleavage is 0.42.

Turning to G55U U78C, the self-cleavage stood at 0.75.

For U54C U72C, the self-cleavage is 1.08.

As to U54C U72A, the self-cleavage came out at 0.62.

Consider U54C U72G, for which the self-cleavage came out at 0.87.

As to U54A C68A, the self-cleavage amounted to 0.44.

As to U54A C68U, the self-cleavage was 1.03.

Take G53A G73C: the self-cleavage came to 1.14.

Turning to G55C U74G, the self-cleavage was determined as 1.13.

Take G53U C68U: the self-cleavage came to 1.13.

As for U54A C79A, the self-cleavage was 1.23.

For the variant U54A C79U, the self-cleavage is 1.16.

Regarding U54A C79G, the self-cleavage worked out at 1.23.

As to G55A A77G, the self-cleavage amounted to 0.96.

Take G53C U76C: the self-cleavage turned out to be 1.06.

Turning to G53C U76A, the self-cleavage is 1.22.

As for A56G, the self-cleavage was 0.91.

In the case of A56C, the self-cleavage worked out at 0.63.

Take U54A: the self-cleavage is 1.09.

As to U54C, the self-cleavage was determined as 1.02.

Take U54G: the self-cleavage is 0.77.

Turning to U54G U66C, the self-cleavage was 0.28.

Turning to G53C A75G, the self-cleavage amounted to 1.16.

Consider G53C A75U, for which the self-cleavage was 1.12.

Turning to G53A A75C, the self-cleavage amounted to 1.18.

Take G53U A64G: the self-cleavage amounted to 0.97.

With U54G U80C, the self-cleavage was found to be 0.67.

Regarding U54C A77U, the self-cleavage was found to be 1.07.

Turning to U54C A77C, the self-cleavage is 0.87.

In the case of U54C A77G, the self-cleavage turned out to be 1.07.

For G53C U78C, the self-cleavage amounted to 1.08.

Regarding G53A A64U, the self-cleavage was determined as 0.48.

For the variant G53A A64G, the self-cleavage was 0.98.

For U54A A64U, the self-cleavage was determined as 0.37.

For the variant U54A A64G, the self-cleavage was 0.92.

Regarding U54A A64C, the self-cleavage turned out to be 0.16.

Consider U54A C62U, for which the self-cleavage is 0.25.

For U54A C62G, the self-cleavage is 0.42.

Consider U54A C62A, for which the self-cleavage worked out at 0.32.

For the variant U54C U66C, the self-cleavage was 0.37.

Take U54C U66G: the self-cleavage was 0.39.

For the variant U54C U66A, the self-cleavage is 0.52.

Turning to G55C A57G, the self-cleavage amounted to 0.37.

Regarding G53C U72A, the self-cleavage worked out at 1.19.

For G53C U72C, the self-cleavage worked out at 1.21.

A56C C62A: the self-cleavage is 0.24.

Regarding G55A A64G, the self-cleavage is 0.61.

In the case of G55A A64U, the self-cleavage stood at 0.25.

For the variant A56C U66C, the self-cleavage came out at 0.32.

Turning to G53C G55A, the self-cleavage is 0.98.

Regarding G55U C79U, the self-cleavage amounted to 1.16.

With G55A A65U, the self-cleavage was determined as 0.27.
